± gives the standard deviation.
Test: protein stability index of a GFP-peptide fusion (GPS, HEK-293T) (PSI 1-6); higher = more stable
[1] = treatment: DMSO, c terminus: a fixed tail appended
[2] = treatment: MLN4924 1 uM, 8 h, c terminus: a fixed tail appended
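Also: 24-mer peptide tiles fused after GFP, lentivirally expressed, FACS-sorted into six equal bins by GFP/DsRed ratio, decoded by Illumina sequencing, PSI is the read-weighted mean bin number.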

Row | Sequence | protein stability index [1] | protein stability index [2] | protein stability index (treatment: DMSO, c terminus: native) | protein stability index (treatment: MLN4924 1 uM, 8 h, c terminus: native)
1 | CPTLIYRETYPRTPYVRWNYVAKN [SOAT2] | 2.06 ± 0.23 | 2.36 ± 0.39 | – | –
2 | CSCEWMAAMFGGSFVESANSEVYL [RHOBTB1] | 2.96 ± 0.62 | 2.85 ± 0.89 | – | –
3 | CTLRQKLIFSPCSDCEEEEEEEEE [WEE1] | 5.04 ± 0.27 | 5 ± 0.26 | – | –
4 | DAFWWAVVTMTTVGYGDMHPVTIG [KCNA3] | 3.67 ± 0.52 | 3.17 ± 0.31 | – | –
5 | DAISWYQKKIGAYDQQIWEKSIEQ [PHTF1] | 2.77 ± 0.037 | 2.79 ± 0.34 | – | –
6 | DALDKIRYESLTDPSKLDSGKELK [HSP90AB1] | 5.06 ± 0.1 | 5 ± 0.16 | – | –
7 | DCPKIVEPHGKMFNEQTWEVSQQD [ZSCAN9] | 5.16 ± 0.089 | 5.18 ± 0.11 | – | –
8 | DCVDGLFKEVKEKFKGWVSYSTSE [DLC1] | 3.04 ± 0.5 | 3.33 ± 0.3 | – | –
9 | DDFDEDELMAELEELEQEELNKKM [CHMP4C] | 5.16 ± 0.85 | 5.6 ± 0.3 | – | –
10 | DELDMSPGDPKWLDVIERDLHRQF [TBC1D10A] | 3.84 ± 0.21 | 3.8 ± 0.12 | – | –
11 | DERRRLLEQKTQESQKKKQQDDSD [ZNF207] | 5.54 ± 0.33 | 5.53 ± 0.25 | – | –
12 | DFLEEVEEIVFNLTNNVDLDNTKK [MNAT1] | 3.03 ± 0.38 | 3.18 ± 0.26 | – | –
13 | DFVLEMNTAKSTSRVTAFLDDLSQ [NLN] | 2.75 ± 0.26 | 2.72 ± 0.33 | – | –
14 | DGDAPGSLLPAQVAACAQTVVSLA [CEBPD] | 4.26 ± 0.19 | 4.12 ± 0.39 | – | –
15 | DGITNGASWYSLSKGMQDFNYLHT [CPN1] | 2.35 ± 0.13 | 2.43 ± 0.22 | – | –
16 | DGKPFPELVLEQQLDREAQARHQL [PCDHGC5] | 4.92 ± 0.33 | 5.04 ± 0.27 | – | –
17 | DGKRCRRKDVCKSTHHGCEHICVN [MATN2] | 3.65 ± 0.3 | 3.92 ± 0.21 | – | –
18 | DGSTYKIELEGISVMVMREILDYI [GAN] | 2.3 ± 0.39 | 1.93 ± 0.15 | – | –
19 | DHELGRCTDSVVKYELMRPSNKAP [EHMT1] | 4.19 ± 0.091 | 4.23 ± 0.31 | – | –
20 | DHKRETERVVREALEKLRSEMEEE [ZMYND11] | 4.99 ± 0.18 | 5.35 ± 0.12 | – | –
21 | DIKAAFAPFGRISDARVVKDMATG [TIA1] | 3.31 ± 0.16 | 3.18 ± 0.4 | – | –
22 | DLIGLPWVCFIYTIMSLASLLFVV [SLC2A12] | 4.15 ± 0.79 | 3.95 ± 0.71 | – | –
23 | DLLAYGAKAELPKYKSFNRTAMPY [MYOZ1] | 2.42 ± 0.12 | 2.29 ± 0.19 | – | –

Row | Sequence | protein stability index [1] | protein stability index [2] | protein stability index (treatment: DMSO, c terminus: native) | protein stability index (treatment: MLN4924 1 uM, 8 h, c terminus: native)
24 | DLLCAQLQLPQLSDLGLLRLCTWL [FANCE] | 2.53 ± 0.35 | 2.78 ± 0.42 | – | –
25 | DLNSKGKKREFRFHPIKETVVEEP [INTS3] | 3 ± 0.65 | 3.64 ± 0.53 | – | –
26 | DLSSLRAKYPHDVVNHLSCDEARN [SPACA9] | 4.47 ± 0.21 | 4.33 ± 0.47 | – | –
27 | DLYNWEVAIFGPPNTLYEGGYFKA [UBE2R2] | 2.66 ± 0.4 | 2.32 ± 0.37 | – | –
28 | DNSDYDYSALSCTSDASFHPAFLP [KCNG1] | 3.59 ± 0.26 | 3.46 ± 0.32 | – | –
29 | DPAYIAVLVLIFNAAKTCPTMPAL [INTS4] | 3.12 ± 0.56 | 3.09 ± 0.47 | – | –
30 | DPKRRMTIAQSLEHSWIKAIRRRN [DAPK3] | 3.67 ± 0.33 | 3.91 ± 0.35 | – | –
31 | DPLNICVFILLLVFIVVKCFTSE [RTP4] | – | – | 2.93 ± 0.24 | 2.89 ± 0.098
32 | DQDLDALMADLVADISEAEQRTIQ [APBB1IP] | 4.48 ± 0.36 | 4.56 ± 0.21 | – | –
33 | DQDYLHSLGKARTAQVQKDARIGE [FLOT1] | 4.86 ± 0.16 | 4.74 ± 0.19 | – | –
34 | DQERIKVERKRLRNRLAATKCRKR [JUNB] | 4.83 ± 0.19 | 4.53 ± 0.17 | – | –
35 | DRGLRGFPKNRVLEGVIDRYQQSK [TRIM9] | 3.98 ± 0.35 | 4.01 ± 0.29 | – | –
36 | DSETLDLEEAEGAVGYQPEYSKFC [NFE2L1] | 5.13 ± 0.34 | 5.01 ± 0.5 | – | –
37 | DSGVQACFNRSREYQLNDSAAYYL [GNAI1] | 2.8 ± 0.15 | 2.75 ± 0.17 | – | –
38 | DSSNSMQTIQKTTTRRIVDGKVVS [KRT18] | 3.61 ± 0.19 | 3.73 ± 0.31 | – | –
39 | DTANEIGQVLHFENVKDVPFGFQT [SERPINB5] | 3.74 ± 0.075 | 3.99 ± 0.2 | – | –
40 | DTTTPTTSAITASRSESPPPLSDP [BRD3] | 5.45 ± 0.42 | 5.57 ± 0.12 | – | –
41 | DWMAAMFGGPFVESSTREVVFPYT [RHOBTB2] | 2.23 ± 0.3 | 2.04 ± 0.47 | – | –
42 | DYSQLNESTTKESSEASQLEDAAG [FBXO34] | 5.47 ± 0.28 | 5.35 ± 0.46 | – | –
43 | DYTWTEFDEPFLTRNVQSVSIIDT [TRIP13] | 3.1 ± 0.24 | 3.19 ± 0.23 | – | –
44 | EAACNDVDRWPAPVPGKTLHLPIM [DENND6A] | 3.52 ± 0.35 | 3.19 ± 0.37 | – | –
45 | EAFAASAVGSGERRGGGPVFPAPV [ZBTB22] | 3.93 ± 0.32 | 4.03 ± 0.28 | – | –
46 | EAQLLQLKVKCLNNLAASQLKLDH [FKBP8] | 2.69 ± 0.26 | 2.95 ± 0.23 | – | –

Row | Sequence | protein stability index [1] | protein stability index [2] | protein stability index (treatment: DMSO, c terminus: native) | protein stability index (treatment: MLN4924 1 uM, 8 h, c terminus: native)
47 | EAWYEDLQEVLSSDENGGTYVSPP [DDIT3] | 4.89 ± 0.11 | 4.93 ± 0.15 | – | –
48 | ECNECGKAFSRSSGLFNHRGIHNI [ZSCAN9] | 2.48 ± 0.59 | 2.16 ± 0.31 | – | –
49 | EDDRDGLLAEREQEEAIAQFPYVE [TMEM106C] | 5.5 ± 0.19 | 5.64 ± 0.1 | – | –
50 | EDFLLKKPIVPTDGKRVIVVFHCE [CDC25A] | 2.37 ± 0.55 | 2.25 ± 0.64 | – | –
51 | EDGEDFNLGDALDSSNSMQTIQKT [KRT18] | 5.44 ± 0.29 | 5.41 ± 0.32 | – | –
52 | EDQGGLEAVRQEMRRQEPLPPPPP [WAS] | 5.3 ± 0.15 | 5.42 ± 0.22 | – | –
53 | EDSSNQEEEGPSTFPDLESEFQAA [MAGEA3] | 5.51 ± 0.28 | 5.48 ± 0.16 | – | –
54 | EEADDTRYTQGTGGDEVDDSVSVN [ZC3H15] | 5.63 ± 0.19 | 5.62 ± 0.19 | – | –
55 | EEANADLEVKIRDWYQRQRPSEIK [KRT16] | 4.14 ± 0.64 | 4.72 ± 0.27 | – | –
56 | EEDSFYRSSYPQQQGLGASYRTES [TBX5] | 4.37 ± 0.2 | 4.22 ± 0.15 | – | –
57 | EEEERDQALQAKASLTIPLVPETE [YJU2B] | 5.42 ± 0.16 | 5.5 ± 0.12 | – | –
58 | EEENIGCEEKAKKNANRPLLDEIV [ACBD3] | 5.25 ± 0.24 | 5.46 ± 0.24 | – | –
59 | EESGAQLLLEMLTFNPHKRISAFR [CDK4] | 2.21 ± 0.15 | 2.23 ± 0.18 | – | –
60 | EEVDVTSVDPIAAFCSSDEELEDS [RBBP5] | 5.55 ± 0.2 | 5.62 ± 0.16 | – | –
61 | EGNSMRCGRKLAKDGEYCWRWTGF [GMCL1] | 2.49 ± 0.22 | 2.11 ± 0.14 | – | –
62 | EHLPVKPDTMEKLRTHIDAIILAL [DENND6A] | 2.64 ± 0.3 | 2.63 ± 0.51 | – | –
63 | EILTCGRDGEPEPMQKLQDLVNRT [RBBP5] | 4.01 ± 0.2 | 3.78 ± 0.25 | – | –
64 | EIPKNCVVAAVGKELIIFRLVAPT [WDR41] | 2.69 ± 0.6 | 2.28 ± 0.43 | – | –
65 | EIVNYEPLGLEADMWSIGVITYIL [DAPK3] | 2.35 ± 0.48 | 1.98 ± 0.27 | – | –
66 | EKDWGLEGYVWRGSQLEDQALRGL [ZSWIM9] | 2.97 ± 0.48 | 3.62 ± 0.58 | – | –
67 | EKEESRREAEKQNYLAEHCPPLHI [TNNI2] | 4.93 ± 0.17 | 4.94 ± 0.22 | – | –
68 | ELCCVAELDNPMQQKWTKPARAGS [C2CD2L] | 3.37 ± 0.39 | 3.6 ± 0.2 | – | –
69 | ELGLLIFFLFIGVILFSSAVYFAE [KCNA1] | 2.04 ± 0.53 | 2.06 ± 0.37 | – | –

Row | Sequence | protein stability index [1] | protein stability index [2] | protein stability index (treatment: DMSO, c terminus: native) | protein stability index (treatment: MLN4924 1 uM, 8 h, c terminus: native)
70 | ELKLEQQEAAERESKLLRDLSAAN [LRRC45] | 4.62 ± 0.18 | 4.77 ± 0.23 | – | –
71 | ELTFSYIAFDGVVGSGGRRDSTAR [RTN2] | 3.17 ± 0.079 | 3.15 ± 0.28 | – | –
72 | ELVSADVIDLFDEQGLSALHLAAQ [RIPK4] | 3.02 ± 0.78 | 3.56 ± 0.4 | – | –
73 | EMDMVVFRPEMKKHSWCLKRKNPP [N4BP2L1] | 3.25 ± 0.31 | 3.25 ± 0.18 | – | –
74 | EMLGRKCLTLATAVVQLYLALPPG [WAS] | 3.02 ± 0.3 | 3.3 ± 0.55 | – | –
75 | EMRIPALNAYMKSLLSLPVWVLMD [NCF4] | 3.26 ± 0.95 | 2.92 ± 0.55 | – | –
76 | EMSEKRGPTSSNPRKRHREDSDVE [MLH1] | 5.49 ± 0.44 | 5.49 ± 0.14 | – | –
77 | ENFKGLAIPYLEHIIHVWEETGSR [VPS39] | 2.52 ± 0.32 | 2.48 ± 0.4 | – | –
78 | ENILMCVDDAYVRRMAAEATEWQK [SRPK2] | 3.52 ± 0.26 | 3.55 ± 0.17 | – | –
79 | ENVKDVPFGFQTVTSDVNKLSSFY [SERPINB5] | 2.74 ± 0.15 | 3.09 ± 0.46 | – | –
80 | ENVLAALEGLNLSILKAMGKTKKD [NECAB1] | 3.12 ± 0.12 | 3.31 ± 0.18 | – | –
81 | EPHPRPLLQRELMVPGTRHSAVLR [TNXB] | 3.93 ± 0.42 | 4.2 ± 0.59 | – | –
82 | EPLQALLERASATLQDLVFDECGI [PRAME] | 2.25 ± 0.2 | 2.67 ± 0.18 | – | –
83 | EQKLRACLEGSINEHSAHCPHTPE [RPAIN] | 4.92 ± 0.28 | 4.99 ± 0.23 | – | –
84 | EQKTGTEAEAADSGAVGARRFLLC [MFSD9] | 4.48 ± 0.15 | 4.42 ± 0.1 | – | –
85 | EQPFIPVEVLVDLFLKEGACDELF [PRAME] | 2.39 ± 0.16 | 2.39 ± 0.35 | – | –
86 | EQRTIQAQKESLQNQHHSASLQAS [APBB1IP] | 5.16 ± 0.19 | 4.99 ± 0.18 | – | –
87 | EQVRFLMKSYSFLREAVPGILRAR [SOAT2] | 1.85 ± 0.62 | 2.1 ± 0.51 | – | –
88 | ERDREREPEAASSRGSPVRVKREF [USP39] | 5.4 ± 0.26 | 5.39 ± 0.17 | – | –
89 | ERIEARLATLEGDDPSLRKTHSSP [PSD2] | 5.08 ± 0.37 | 5.09 ± 0.18 | – | –
